Our source for the self-cleavage values is the RNAGym collection of RNA variant scans (doi:10.7554/elife.80360).

B1: HDV Ribozyme (parent)
chain: GGCCGGCAUGGUCCCAGCCUCCUCGCUGGCGCCGGCUGGGCAACAUUCCGAGGGGACCGUCCCCUCGGUAAUGGCGAAUGGGACCCA

In the data set the parent is B1. The data set can be described thus: self-cleavage, relative activity (ratio to wild type); higher = more cleavage; co-transcriptional.
In the case of GGCCGGCAUGGUCCCAGCCUCCUCGCUGGCGCCGGCUGGGCAACAUUCCGGGGGGACCGUACCCUCGGUAAUGGCGAAUGGGACCCA [A51G C61A], the self-cleavage was found to be 0.954.
As for GGCCGGCAUGGUCCCAGCCUCCUCGCUGGCGCCGGCUGGGCAACAUUCCGUGGGGACCGCCCCCUCGGUAAUGGCGAAUGGGACCCA [A51U U60C], the self-cleavage turned out to be 0.594.
As to GGCCGGCAUGGUCCCAGCCUCCUCGCUGGCGCCGGCUGGGCAACAUUCCGUGGGGACCGGCCCCUCGGUAAUGGCGAAUGGGACCCA [A51U U60G], the self-cleavage came out at 1.04.
Under GGCCGGCAUGGUCCCAGCCUCCUCGCUGGCGCCGGCUGGGCAACAUUCCGUGGGGACCGUCCCCUCGGUAAUGGCGAAUGGGACCCU [A51U A87U] stands 1.03; under GGCCGGCAUGGUCCCAGCCUCCUCGCUGGCGCCGGCUGGGCAACAUUCCGGGGGGACCGUCCCCUCGGUAAUGGCGAAUGGCACCCA [A51G G82C], 0.322; under GGCCGGCAUGGUCCCAGCCUCCUCGCUGGCGCCGGCUGGGCAACAUUCCGGGGGGACCGUCCCCUCGGUAAUGGCGAAUGGUACCCA [A51G G82U], 0.203.
As for GGCCGGCAUGGUCCCAGCCUCCUCGCUGGCGCCGGCUGGGCAACAUUCCGGGGGGACCGUCCCCUCGGUAAUGGCGAAUGGAACCCA [A51G G82A], the figure is 0.125.
GGCCGGCAUGGUCCCAGCCUCCUCGCUGGCGCCGGCUGGGCAACAUUCCGUGGGGACCGUCCCCUCGGUAAUGCCGAAUGGGACCCA [A51U G74C]: the self-cleavage turned out to be 0.243.
Take GGCCGGCAUGGUCCCAGCCUCCUCGCUGGCGCCGGCUGGGCAACAUUCCGUGGGGACCGUCCCCUCGGUAAUGUCGAAUGGGACCCA [A51U G74U]: the self-cleavage is 0.369.
Under GGCCGGCAUGGUCCCAGCCUCCUCGCUGGCGCCGGCUGGGCAACAUUCCGUGGGGACCGUCCCCUCGGUAAUGGCGAAUGGGACACA [A51U C85A] stands 0.956; under GGCCGGCAUGGUCCCAGCCUCCUCGCUGGCGCCGGCUGGGCAACAUUCCGUGGGGACCGUCCCCUCGGUAAUGGCCAAUGGGACCCA [A51U G76C], 1.23.
GGCCGGCAUGGUCCCAGCCUCCUCGCUGGCGCCGGCUGGGCAACAUUCCGUGGGGACCGUCCCCUCGGUAAUGGCAAAUGGGACCCA [A51U G76A]: the self-cleavage is 0.961.
As for GGCCGGCAUGGUCCCAGCCUCCUCGCUGGCGCCGGCUGGGCAACAUUCCGUGGGGACCGUCCCCUCGGUAAUGGCUAAUGGGACCCA [A51U G76U], the figure is 1.11; as for GGCCGGCAUGGUCCCAGCCUCCUCGCUGGCGCCGGCUGGGCAACAUUCCGUGGGGACCGUCCCCUCGGUAAUGGCGGAUGGGACCCA [A51U A77G], 0.615.
As for GGCCGGCAUGGUCCCAGCCUCCUCGCUGGCGCCGGCUGGGCAACAUUCCGUGGGGACCGUCCCCUCCGUAAUGGCGAAUGGGACCCA [A51U G67C], the figure is 0.78; as for GGCCGGCAUGGUCCCAGCCUCCUCGCUGGCGCCGGCUGGGCAACAUUCCGGGGGGACCGUCCCCUCGGUAAUGGCAAAUGGGACCCA [A51G G76A], 0.91.
Turning to GGCCGGCAUGGUCCCAGCCUCCUCGCUGGCGCCGGCUGGGCAACAUUCCGGGGGGACCGUCCCCUCGGUAAUGGCCAAUGGGACCCA [A51G G76C], the self-cleavage is 0.831.
Under GGCCGGCAUGGUCCCAGCCUCCUCGCUGGCGCCGGCUGGGCAACAUUCCGGGGGGACCGUCCCCUCGGUAACGGCGAAUGGGACCCA [A51G U72C] stands 0.864; under GGCCGGCAUGGUCCCAGCCUCCUCGCUGGCGCCGGCUGGGCAACAUUCCGGGGGGACCGUCCCCUCGGUAAGGGCGAAUGGGACCCA [A51G U72G], 0.615.
On to GGCCGGCAUGGUCCCAGCCUCCUCGCUGGCGCCGGCUGGGCAACAUUCCGUGGGGACAGUCCCCUCGGUAAUGGCGAAUGGGACCCA [A51U C58A], for which the self-cleavage was 1.04.
On to GGCCGGCAUGGUCCCAGCCUCCUCGCUGGCGCCGGCUGGGCAACAUUCCGUGGGGACGGUCCCCUCGGUAAUGGCGAAUGGGACCCA [A51U C58G], for which the self-cleavage was found to be 0.997.
Under GGCCGGCAUGGUCCCAGCCUCCUCGCUGGCGCCGGCUGGGCAACAUUCCGUGGGGACCUUCCCCUCGGUAAUGGCGAAUGGGACCCA [A51U G59U] stands 1.02; under GGCCGGCAUGGUCCCAGCCUCCUCGCUGGCGCCGGCUGGGCAACAUUCCGUGGGGACCAUCCCCUCGGUAAUGGCGAAUGGGACCCA [A51U G59A], 0.889.
As for GGCCGGCAUGGUCCCAGCCUCCUCGCUGGCGCCGGCUGGGCAACAUUCCGUGGGGACCCUCCCCUCGGUAAUGGCGAAUGGGACCCA [A51U G59C], the figure is 0.755.
GGCCGGCAUGGUCCCAGCCUCCUCGCUGGCGCCGGCUGGGCAACAUUCCGGGGGGACCCUCCCCUCGGUAAUGGCGAAUGGGACCCA [A51G G59C]: the self-cleavage turned out to be 0.895.
For GGCCGGCAUGGUCCCAGCCUCCUCGCUGGCGCCGGCUGGGCAACAUUCCGGGGGGACCUUCCCCUCGGUAAUGGCGAAUGGGACCCA [A51G G59U], the self-cleavage is 1.1.
GGCCGGCAUGGUCCCAGCCUCCUCGCUGGCGCCGGCUGGGCAACAUUCCGGGGGGACCGUCCCCUCGGUAGUGGCGAAUGGGACCCA [A51G A71G]: the self-cleavage was 0.752.
Under GGCCGGCAUGGUCCCAGCCUCCUCGCUGGCGCCGGCUGGGCAACAUUCCGGGGGGAGCGUCCCCUCGGUAAUGGCGAAUGGGACCCA [A51G C57G] stands 0.916; under GGCCGGCAUGGUCCCAGCCUCCUCGCUGGCGCCGGCUGGGCAACAUUCCGGGAGGACCGUCCCCUCGGUAAUGGCGAAUGGGACCCA [A51G G53A], 0.831; under GGCCGGCAUGGUCCCAGCCUCCUCGCUGGCGCCGGCUGGGCAACAUUCCGUGGGGACCGUCCCCUCGGCAAUGGCGAAUGGGACCCA [A51U U69C], 1.26.
Under GGCCGGCAUGGUCCCAGCCUCCUCGCUGGCGCCGGCUGGGCAACAUUCCGGGGGGACCGUCCCGUCGGUAAUGGCGAAUGGGACCCA [A51G C64G] stands 0.902.
With GGCCGGCAUGGUCCCAGCCUCCUCGCUGGCGCCGGCUGGGCAACAUUCCGGGGGGACCGUCCCUUCGGUAAUGGCGAAUGGGACCCA [A51G C64U], the self-cleavage was determined as 0.892.
